US20230124669A1 (ADAGENE, published 2023)
One block for each binder: values may come before it.

Tests used:
[1] = target: T1, Human PDL1 (SPR analyte) (human, UniProt Q9NZQ7 19-238, limits assumed); assay: SPR (Biacore T200), antibody captured by anti-human IgG on CM5 chip, antigen injected as analyte, 1:1 Langmuir fit
T1 construct: also called PDL1H
Protocol: (§1) Biacore T200 (GE Healthcare) was used as a high performance system for real-time biomolecular interaction analysis, using surface plasmon resonance technology (“SPR”). During the measurement, anti-human IgG monoclonal antibody from the Human Antibody Capture Kit provided by Biacore was immobilized on CM5 chips, and IgG sample was injected onto sensor chip. Analytes were injected onto IgG captured flow cell for binding kinetic analysis in HBS-EP buffer.

[2] = target: T2, Human CD137 (SPR analyte) (human, UniProt Q07011 24-186, limits assumed); assay: as above
T2 construct: also called CD137H
Protocol: as §1

[3] = target: T3, mouse CD137 expressed on cells (mouse, UniProt P20334 24-256); assay: flow cytometry, antigen transiently expressed on yeast or HEK293F cells, IgG at 100 nM, Alexa Fluor 647 anti-human Fc detection (FIG. 13)
T3 construct: whole, on cells
T3 sequence (looked up): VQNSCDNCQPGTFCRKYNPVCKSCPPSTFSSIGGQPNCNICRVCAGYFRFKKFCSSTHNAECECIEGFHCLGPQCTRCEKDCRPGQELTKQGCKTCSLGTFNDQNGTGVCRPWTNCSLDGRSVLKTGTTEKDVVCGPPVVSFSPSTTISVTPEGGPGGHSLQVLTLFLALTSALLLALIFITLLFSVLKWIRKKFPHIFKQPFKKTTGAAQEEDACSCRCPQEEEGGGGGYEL
Protocol: (§2) The affinity of antibodies was also assessed against human, monkey and mouse CD137 or PDL1 that were transiently expressed on the surface of yeast or HEK293F cells. Briefly, yeast or HEK293F cells were transfected with a plasmid expressing human, monkey or mouse CD137 or PDL1. After 48 hours, the transfected cells were harvested and then washed. Cells were then incubated with IgGs (each at 100 nM) at 4° C. in the shaking bed for 1 hour shaking at 300 rpm, protected from light. For simultaneously binding, cell were incubated with biotinylated human CD137 or PDL1 protein fused with human Fc fragment, and SA-PE (streptavidin, phycoerythrin conjugated). For cross-reactivity, cells were incubated with Alexa Fluor 647 conjugated mouse anti-human Fc antibodies. The mixtures were incubated at 4° C. in the shaking bed for 30 minutes shaking at 300 rpm, protected from light. The cells were washed once prior to analysis by flow cytometry (Beckman CytoFlex).

[4] = target: T4, mouse PDL1 expressed on cells (mouse, UniProt Q9EP73 19-290); assay: as above
T4 construct: whole, on cells
T4 sequence (Q9EP73 19-290): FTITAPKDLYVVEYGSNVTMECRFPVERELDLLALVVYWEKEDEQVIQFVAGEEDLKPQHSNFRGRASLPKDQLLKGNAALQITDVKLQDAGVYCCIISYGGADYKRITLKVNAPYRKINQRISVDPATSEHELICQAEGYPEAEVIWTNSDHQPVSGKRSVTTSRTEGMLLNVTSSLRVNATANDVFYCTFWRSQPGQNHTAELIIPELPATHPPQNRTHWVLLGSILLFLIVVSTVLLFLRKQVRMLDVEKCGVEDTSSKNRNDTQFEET
Protocol: as §2

[5] = target: T3, mouse CD137 expressed on cells; assay: told in words; cross-reactivity by flow cytometry on antigen-expressing cells (FIG. 13)
Protocol: as §2

[6] = target: T4, mouse PDL1 expressed on cells; assay: as above
Protocol: as §2

[7] = target: T5, human CD3 (E and δ chain heterodimer) fused with human Fc fragment (human, UniProt P07766 23-126; P04234 22-105); assay: ELISA, plate coated with 2 µg/mL antigen-human Fc fusion, serially diluted IgG
T5 construct: ELISA coating antigen; the text prints 'E and 6 chain heterodimer', read as epsilon and delta
T5 sequence (P07766 23-126, stated change not applied, chain 1 of 2): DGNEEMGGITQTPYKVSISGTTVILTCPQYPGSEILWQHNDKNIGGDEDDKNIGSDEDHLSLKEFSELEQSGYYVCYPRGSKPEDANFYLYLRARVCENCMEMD
T5 sequence (P04234 22-105, stated change not applied, chain 2 of 2): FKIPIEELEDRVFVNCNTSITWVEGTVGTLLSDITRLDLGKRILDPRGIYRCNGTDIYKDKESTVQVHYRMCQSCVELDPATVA
Protocol: 2 μg/mL of human HER2 or CD3 (E and 6 chain heterodimer) fused with human Fc fragment, were prepared and used to coat the ELISA plate at 2-8′C overnight. After washing and blocking, 50 μL serial diluted IgGs were added and incubated at 37′C for 1 hour. Plates were washed three times and then incubated with 50 μL/well TMB substrate at room temperature for about 20 minutes. Absorbance at 450 nm was measured after the reaction was stopped. The data was analyzed by GraphPad Prism 6 with nonlinear fitting.

[8] = target: HER2 on HER2-positive tumor cells (SKOV3) (UniProt P04626 23-1255); assay: cell-based or functional assay

T1 sequence (Q9NZQ7 19-238 limits assumed): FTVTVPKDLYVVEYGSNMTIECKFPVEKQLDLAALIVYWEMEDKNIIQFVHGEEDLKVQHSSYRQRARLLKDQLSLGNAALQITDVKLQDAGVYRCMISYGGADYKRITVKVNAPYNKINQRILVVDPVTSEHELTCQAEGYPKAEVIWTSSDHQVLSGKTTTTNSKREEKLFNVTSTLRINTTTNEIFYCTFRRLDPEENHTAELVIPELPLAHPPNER

B2: TY22121 (bispecific antibody, human IgG1, kappa)
heavy: DIQLTQSPSSLSASVGDRVTITCRASQSIPSFLNWYQQKPGKAPKLLIYAASSLQSGVPSRFSGSGSGTDFTLTISSLQPEDFATYYCQHYISWPRQFTFGQGTKVEIKRTVAAPSVFIFPPSDEQLKSGTASVVCLLNNFYPREAKVQWKVDNALQSGNSQESVTEQDSKDSTYSLSSTLTLSKADYEKHKVYACEVTHQGLSSPVTKSFNRGEC
light: not shown
notes: Morrison format: anti-PDL1 Fab, anti-CD137 scFv at the C-terminus of the Fc; IgG1; heavy chain = VH-CH1-hinge-CH2-CH3-linker-scFv; also called PDL1 × CD137 bispecific antibody, format TYF01
binding result [3]: binds
binding result [4]: binds
Kd [1]: 6.9 nM
Kd [2]: 14.1 nM

B3: TY22148 (bispecific antibody, human IgG1, kappa)
heavy: B2 heavy
light: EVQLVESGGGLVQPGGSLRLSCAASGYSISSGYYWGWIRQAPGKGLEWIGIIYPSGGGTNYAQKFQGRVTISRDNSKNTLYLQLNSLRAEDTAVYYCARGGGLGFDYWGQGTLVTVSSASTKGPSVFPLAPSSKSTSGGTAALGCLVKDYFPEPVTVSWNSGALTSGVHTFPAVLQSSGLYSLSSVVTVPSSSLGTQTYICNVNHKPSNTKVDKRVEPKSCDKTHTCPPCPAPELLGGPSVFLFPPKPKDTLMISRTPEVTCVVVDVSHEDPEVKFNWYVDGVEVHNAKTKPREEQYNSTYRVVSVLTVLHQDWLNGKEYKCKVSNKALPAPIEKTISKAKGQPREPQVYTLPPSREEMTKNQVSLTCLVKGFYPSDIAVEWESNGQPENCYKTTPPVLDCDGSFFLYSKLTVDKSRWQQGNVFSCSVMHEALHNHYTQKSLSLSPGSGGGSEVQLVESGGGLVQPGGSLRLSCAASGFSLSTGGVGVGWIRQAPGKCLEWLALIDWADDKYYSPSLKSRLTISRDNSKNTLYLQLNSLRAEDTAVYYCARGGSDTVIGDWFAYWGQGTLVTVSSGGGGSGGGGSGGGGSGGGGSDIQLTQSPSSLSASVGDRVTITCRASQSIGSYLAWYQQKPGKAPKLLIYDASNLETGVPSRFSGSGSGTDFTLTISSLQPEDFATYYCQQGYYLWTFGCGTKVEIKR
notes: Morrison format: anti-PDL1 Fab, anti-CD137 scFv; IgG1 with N390C:S400'C; also called PDL1 × CD137 bispecific antibody, format TYF02
binding result [3]: binds
binding result [4]: binds
Kd [1]: 7.7 nM
Kd [2]: 6.7 nM

B4: anti-CD137 Fv (antibody, V domains shown)
VH: EVQLVESGGGLVQPGGSLRLSCAASGFSLSTGGVGVGWIRQAPGKGLEWLALIDWADDKYYSPSLKSRLTISRDNSKNTLYLQLNSLRAEDTAVYYCARGGSDTVIGDWFAYWGQGTLVTVSS
VL: DIQLTQSPSSLSASVGDRVTITCRASQSIGSYLAWYQQKPGKAPKLLIYDASNLETGVPSRFSGSGSGTDFTLTISSLQPEDFATYYCQQGYYLWTFGQGTKVEIKR
notes: Named only as the anti-CD137 Fv used in the bispecific and parental antibodies; also called CD137 VH / CD137 VL
binding result [5]: binds

More lines, main results first:

Kd [1]: 40.3 nM
Kd [2]: 2.8 nM
B1: TY22362 (bispecific antibody, human IgG4 S228P, kappa)
heavy: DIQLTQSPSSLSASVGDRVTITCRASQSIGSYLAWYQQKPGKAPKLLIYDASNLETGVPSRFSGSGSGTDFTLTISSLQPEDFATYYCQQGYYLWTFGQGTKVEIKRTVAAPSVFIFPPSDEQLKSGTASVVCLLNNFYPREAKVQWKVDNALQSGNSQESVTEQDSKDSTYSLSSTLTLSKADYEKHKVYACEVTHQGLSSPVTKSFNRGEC
light: EVQLVESGGGLVQPGGSLRLSCAASGFSLSTGGVGVGWIRQAPGKGLEWLALIDWADDKYYSPSLKSRLTISRDNSKNTLYLQLNSLRAEDTAVYYCARGGSDTVIGDWFAYWGQGTLVTVSSASTKGPSVFPLAPCSRSTSESTAALGCLVKDYFPEPVTVSWNSGALTSGVHTFPAVLQSSGLYSLSSVVTVPSSSLGTKTYTCNVDHKPSNTKVDKRVESKYGPPCPPCPAPEFLGGPSVFLFPPKPKDTLMISRTPEVTCVVVDVSQEDPEVQFNWYVDGVEVHNAKTKPREEQFNSTYRVVSVLTVLHQDWLNGKEYKCKVSNKGLPSSIEKTISKAKGQPREPQVYTLPPSQEEMTKNQVSLTCLVKGFYPSDIAVEWESNGQPENCYKTTPPVLDCDGSFFLYSRLTVDKSRWQEGNVFSCSVMHEALHNHYTQKSLSLSLGSGGGSGGGGSEVQLVESGGGLVQPGGSLRLSCAASGYSISSGYYWGWIRQAPGKCLEWIGIIYPSGGGTNYAQKFQGRVTISRDNSKNTLYLQLNSLRAEDTAVYYCARGGGLGFDYWGQGTLVTVSSGGGGSGGGGSGGGGSGGGGSDIQLTQSPSSLSASVGDRVTITCRASQSIPSFLNWYQQKPGKAPKLLIYAASSLQSGVPSRFSGSGSGTDFTLTISSLQPEDFATYYCQHYISWPRQFTFGCGTKVEIKR
notes: Morrison format: anti-CD137 Fab, anti-PDL1 scFv; also called CD137 × PDL1 bispecific antibody, format TYF08

binding result [6]: binds
B5: anti-PDL1 Fv (antibody, V domains shown)
VH: EVQLVESGGGLVQPGGSLRLSCAASGYSISSGYYWGWIRQAPGKGLEWIGIIYPSGGGTNYAQKFQGRVTISRDNSKNTLYLQLNSLRAEDTAVYYCARGGGLGFDYWGQGTLVTVSS
VL: DIQLTQSPSSLSASVGDRVTITCRASQSIPSFLNWYQQKPGKAPKLLIYAASSLQSGVPSRFSGSGSGTDFTLTISSLQPEDFATYYCQHYISWPRQFTFGQGTKVEIKR
notes: Named only as the anti-PDL1 Fv used in the bispecific and parental antibodies; also called PDL1 VH / PDL1 VL

binding result [7]: binds
B6: TY24051 (bispecific antibody)
heavy: not shown
chain: not shown
light: QAVVTQEPSLTVSPGGTVTLTCGSSTGAVTTSNYANWVQQKPGQAPRGLIGGTNKRAPGVPARFSGSLLGGKAALTLSGAQPEDEAEYYCALWYSNLWVFGGGTKLTVLRGGGGSGGGGSGGGGSGGGGSEVQLVESGGGLVQPGGSLRLSCAASGFTFNTYAMNWVRQAPGKGLEWVGRIRSKYNNYATYYADSVKGRFTISRDDSKNTLYLQMNSLRAEDTAVYYCVRHGNFGNSYVSWFAYWGQGTLVTVSSEPKSSDKTHTCPPCPAPELLGGPSVFLFPPKPKDTLMISRTPEVTCVVVDVSHEDPEVKFNWYVDGVEVHNAKTKPREEQYASTYRVVSVLTVLHQDWLNGKEYKCKVSNKALPAPIEKTISKAKGQPREPQVYTDPPSRDELTKNQVSLTCLVDGFYPSDIAVEWESNGQPENCYKTTPPVLDSDGSFFLYSKLTVDKSRWQQGNVFSCSVMHEALHNHYTQDSLSLSPGK
notes: Anti-HER2 Fab arm and anti-CD3 scFv arm, IgG1 Fc with TYM13 mutations and N297A; also called HER2×CD3 bispecific T-cell-engaging antibody; parental bispecific Fab X scFv in IgG1

binding result [7]: binds
B7: TY24052 (bispecific antibody)
heavy: not shown
chain: not shown
light: EVGSYPYDDPDCPSHDSDCDNSGRSAGGGGTPLGLAGSGGSQAVVTQEPSLTVSPGGTVTLTCGSSTGAVTTSNYANWVQQKPGQAPRGLIGGTNKRAPGVPARFSGSLLGGKAALTLSGAQPEDEAEYYCALWYSNLWVFGGGTKLTVLRGGGGSGGGGSGGGGSGGGGSEVQLVESGGGLVQPGGSLRLSCAASGFTFNTYAMNWVRQAPGKGLEWVGRIRSKYNNYATYYADSVKGRFTISRDDSKNTLYLQMNSLRAEDTAVYYCVRHGNFGNSYVSWFAYWGQGTLVTVSSEPKSSDKTHTCPPCPAPELLGGPSVFLFPPKPKDTLMISRTPEVTCVVVDVSHEDPEVKFNWYVDGVEVHNAKTKPREEQYASTYRVVSVLTVLHQDWLNGKEYKCKVSNKALPAPIEKTISKAKGQPREPQVYTDPPSRDELTKNQVSLTCLVDGFYPSDIAVEWESNGQPENCYKTTPPVLDSDGSFFLYSKLTVDKSRWQQGNVFSCSVMHEALHNHYTQDSLSLSPGK
notes: Masked, cleavable version of TY24051, uncleaved; IgG1 Fc with TYM13 mutations and N297A; also called SAFEbody
EC50 of T-cell mediated killing of SKOV3 cells, fold increase compared with TY24051 [8]: ~800 fold
